Assays:
[1] = target: Sox2-HMG (thrombin cleaved) (Homo sapiens) (UniProt P48431); experiment: FP; settings: 10 mM Tris-HEPES pH 7.5, 8% Ficoll, 0.05% NP-40, 135 mM KCl, 15 mM NaCl, 1 mM DTT, 0.1 mg/mL BSA; 2 nM DNA or 3 nM RNA; low values mean tight binding
[2] = target: Sox2 full length (Homo sapiens) (UniProt P48431); experiment: FP; settings: 10 mM Tris-HEPES pH 7.5, 8% Ficoll, 0.05% NP-40, 135 mM KCl, 15 mM NaCl, 1 mM DTT, 0.1 mg/mL BSA; 2 nM DNA or 3 nM RNA; low values mean tight binding
Sox2-HMG (Homo sapiens) = Sox2-HMG (Homo sapiens) (UniProt P48431); experiment: fluorescence anisotropy; settings: 10 mM Tris-HEPES pH 7.5, 135 mM KCl, 15 mM NaCl, 1 mM DTT, 8% Ficoll, 0.05% NP-40, 0.1 mg/mL BSA; 2 nM DNA or 3 nM RNA; room temperature (stated for …)
[3] = target: Sox2 full length (Homo sapiens) (UniProt P48431); experiment: fluorescence anisotropy; settings: 10 mM Tris-HEPES pH 7.5, 135 mM KCl, 15 mM NaCl, 1 mM DTT, 8% Ficoll, 0.05% NP-40, 0.1 mg/mL BSA; 2 nM DNA or 3 nM RNA; room temperature (stated for …)

Sox2 full length (Homo sapiens), sequence (P48431 whole entry): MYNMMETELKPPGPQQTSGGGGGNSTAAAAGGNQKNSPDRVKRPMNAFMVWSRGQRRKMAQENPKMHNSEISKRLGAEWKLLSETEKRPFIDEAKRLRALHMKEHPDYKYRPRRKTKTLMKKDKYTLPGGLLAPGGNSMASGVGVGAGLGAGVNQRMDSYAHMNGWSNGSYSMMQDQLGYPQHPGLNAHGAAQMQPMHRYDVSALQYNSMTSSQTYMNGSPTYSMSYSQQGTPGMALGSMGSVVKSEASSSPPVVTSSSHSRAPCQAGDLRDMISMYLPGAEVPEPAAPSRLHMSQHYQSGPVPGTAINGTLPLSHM
Sox2-HMG (Homo sapiens), sequence (P48431 40-123): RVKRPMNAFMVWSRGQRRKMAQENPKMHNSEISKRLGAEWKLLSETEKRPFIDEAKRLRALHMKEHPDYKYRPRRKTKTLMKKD
Sox2-HMG (thrombin cleaved) (Homo sapiens), sequence (P48431 other isoform, or with tags, fused parts or gaps): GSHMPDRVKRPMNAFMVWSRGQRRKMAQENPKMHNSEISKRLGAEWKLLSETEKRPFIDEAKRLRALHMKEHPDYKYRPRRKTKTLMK

Substance	Kd [1] [nM]	Kd [2] [nM]	Kd (Sox2-HMG (Homo sapiens)) [nM]	binding signal (fold weaker than FGF4) [3]
GGAAGAAGUGAAAUCACUAUAUUUAGAAACGAAUGCUACCAUCCCACCCCAACUACAUGUUCAGGUUAAAUGCGUGCACAUCCUGGUAGCUGGAACAUCUGUUUCUAGCUUGUUGUUCCUCUUGGCUGCUUUUCAAUUGGAUUUCCUCGAGCAGGUCCCAGGCUUGUCACUGCAGCCAGGGUCUGUUAACCAUCACCACUGGUUCUACAUUAAGUAGGAGGUUCAGGGCUAAGCUAAUAACUCGCCUGCCUUUCUGACUGAUCACAGUGAUGUUCGCCGUGGCCACUUAUCAUGCGGGCUCCUUUGGGAGGGUGCUCUUCUUUGUCUGUACCUCUGGGUGGAAAGGGCGAAUUC [ES2 lncRNA 1-354]	25.6	17.5	26	–
dsDNA w/o binding site	–	–	–	> 200
ssDNA with consensus site	–	–	–	> 200
